T1: sGP 1-295aa (Ebola virus (ZEbov by the title of …, UniProt P60170 33-295))
T1 sequence: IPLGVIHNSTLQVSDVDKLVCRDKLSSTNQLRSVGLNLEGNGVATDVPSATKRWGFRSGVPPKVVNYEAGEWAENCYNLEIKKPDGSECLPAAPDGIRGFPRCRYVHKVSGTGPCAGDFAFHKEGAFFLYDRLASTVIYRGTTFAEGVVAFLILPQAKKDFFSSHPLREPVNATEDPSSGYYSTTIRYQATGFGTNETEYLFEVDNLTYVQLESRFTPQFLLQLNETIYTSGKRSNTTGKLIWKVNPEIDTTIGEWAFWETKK

T2: Mucin domain 333-458aa (Ebola virus (ZEbov by the title of …, UniProt Q05320 333-458))
T2 sequence: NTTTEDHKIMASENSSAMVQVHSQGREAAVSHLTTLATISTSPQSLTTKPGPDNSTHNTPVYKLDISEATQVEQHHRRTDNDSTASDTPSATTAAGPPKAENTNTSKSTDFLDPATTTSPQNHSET

T3: GP1 1-501aa (Ebola virus (ZEbov by the title of …, UniProt Q05320 33-501))
T3 sequence: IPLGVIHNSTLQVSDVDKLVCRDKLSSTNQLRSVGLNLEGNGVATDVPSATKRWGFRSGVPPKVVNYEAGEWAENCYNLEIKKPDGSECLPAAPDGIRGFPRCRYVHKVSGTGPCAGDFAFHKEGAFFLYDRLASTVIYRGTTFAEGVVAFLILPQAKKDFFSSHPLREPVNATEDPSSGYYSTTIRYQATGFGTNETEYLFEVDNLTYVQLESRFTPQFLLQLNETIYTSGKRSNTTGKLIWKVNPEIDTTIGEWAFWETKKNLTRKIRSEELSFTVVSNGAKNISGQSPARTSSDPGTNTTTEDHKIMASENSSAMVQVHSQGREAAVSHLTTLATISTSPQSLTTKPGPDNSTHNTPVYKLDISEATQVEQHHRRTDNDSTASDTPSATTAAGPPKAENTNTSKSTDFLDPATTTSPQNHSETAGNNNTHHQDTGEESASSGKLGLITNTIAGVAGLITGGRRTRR

B1: monoclonal antibody 7C9 (antibody, V domains shown)
VH: GAELVKPGASVKLSCTASGFNIKDTYMHWVKERPDKGLEWIGRIDPANGNTKCDSRFQGKATITADTSSNTAYLQLSSLTSEDTAVYYCARRIYFGKGFDFWGQGTTLTVSS
VL: SSLSVSAGEKVTMSCKSSQSLFNSGDQKNYLAWYQQKPGQPPKLLIYGASTRESGVPDRFTGSGSGTDFTLTISSVQAEDLAVYYCQNDQFYPPTFGDGTKLDLKR
B2: monoclonal antibody 10C8 (antibody, V domains shown)
VH: GAELVRSGASVKLSCTSSGFNIKDYFLHWVKQRPEQGLEWIGWIDPENGDTEYAPKFQDKATMTADTSSNTAYLHLSSLTSEDTGVYYCNADGNYGKNYWGQGTTLTVSS
VL: LSLPVSLGDQASISCRSSQSLVHSNGNTFLHWYLQKPGQSPKLLIYRVSNRFSGVPDRFSGSGSGTDFTLKISRVEAEDLGVYFCSQSTHVPPYTFGGGTKLEIKR
B3: monoclonal antibody 2G4 (antibody, V domains shown)
VH: GGGLMQPGGSMKLSCVASGFTFSNYWMNWVRQSPEKGLEWVAEIRLKSNNYATHYAESVKGRFTISRDDSKRSVYLQMNTLRAEDTGIYYCTRGNGNYRAMDYWGQGTSVTVSS
VL: ASLSVSVGETVSITCRASENIYSSLAWYQQKQGKSPQLLVYSATILADGVPSRFSGSGSGTQYSLKINSLQSEDFGTYYCQHFWGTPYTFGGGTKLEIKR
B4: monoclonal antibody 5D2 (antibody, V domains shown)
VH: GPGLVRPSQSLSLTCTVTGYSITSDYAWNWIRQFPGNKLEWLGYITNTGSTGFNPSLKSRISITRDTSKNQFFLQLISVTTEDTATYHCARGLAYWGQGTLVTVSA
VL: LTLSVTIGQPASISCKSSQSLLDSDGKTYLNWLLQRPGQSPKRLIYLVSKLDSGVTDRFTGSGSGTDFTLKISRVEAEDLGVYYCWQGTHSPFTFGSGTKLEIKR
B5: monoclonal antibody 4G7 (antibody, V domains shown)
VH: GPELEMPGASVKISCKASGSSFTGFSMNWVKQSNGKSLEWIGNIDTYYGGTTYNQKFKGKATLTVDKSSSTAYMQLKSLTSEDSAVYYCARSAYYGSTFAYWGQGTLVTVSA
VL: ASLSASVGETVTITCRASENIYSYLAWYQQKQGKSPQLLVYNAKTLIEGVPSRFSGSGSGTQFSLKINSLQPEDFGSYFCQHHFGTPFTFGSGTELEIKR
B6: monoclonal antibody 5E6 (antibody, V domains shown)
VH: GGGLVKPGGSLKLSCAASGSAFSRYDMSWVRQTPEKRLEWVAYISRGGGFIYYPDTVKGRFTISRDNAKNTLYLQMSSLKSDDTAMYYCARHVYYGSSPLYAMDYWGQGTSVTVSS
VL: SASFSLGASAKLTCTLSSQHSTFTIEWYQQQPLKPPKYVMELKKDGSHSTGDGIPDRFSGSSSGADRYLSISNIQPEDEAIYICGVGDTINEQFVYVFGGGTKVTVLG
B7: monoclonal antibody 7G4 (antibody, V domains shown)
VH: GGGLVQPGGSLRLSCATSGFTFTDHYMGWVRQPPGKALEWLAFVRYKAKGYTTEYTASVKGRFTISRDNSQSILYLQMNTLRTEDSATYYCARDRGGYVGAMDYWGQGTSVTVSS
VL: LSLPVSLGDQASISCRSSQSLVHRNGNTYFHWYLQKPGQSPKLLIYKVSNRFSGVPDRFSGSGSGTDFTLKISRVEAEDLGVYFCSQSTHVPYTFGGGTKLEIKR
B8: monoclonal antibody 1H3 (antibody, V domains shown)
VH: GAELVKPGASVKLSCTASGFNIKDTYIHWVKQGPEQGLEWIGRIDPANGNTKYDPKFQGKATITADTSSNTAYLQLSGLTSEDTAVYYCARESRISTMLTTGYFDYWGQGTTLTVSS
VL: AIMSASPGEKVTMTCSASSSVSYMYWYQQKPGSSPRLLIYDTSNLASGVPVRFSGSGSGTSYSLTISRMEAEDAATYYCQQWSSYPYTFGGGTKLEIKR

target: T1, sGP 1-295aa; test: ELISA, antigen coated 0.3 µg/well, serial dilutions of MAb

| Binder | binding result |
| --- | --- |
| B1 | no binding (tested: Cut off was 2X background) |
| B2 | no binding (tested: Cut off was 2X background) |
| B3 | no binding (tested: Cut off was 2X background) |
| B4 | no binding (tested: Cut off was 2X background) |
| B5 | no binding (tested: Cut off was 2X background) |
| B6 | no binding (tested: Cut off was 2X background) |
| B7 | no binding (tested: Cut off was 2X background) |

target: T2, Mucin domain 333-458aa; test: as above

| Binder | binding result |
| --- | --- |
| B8 | no binding (tested: Cut off was 2X background) |
| B3 | no binding (tested: Cut off was 2X background) |
| B5 | no binding (tested: Cut off was 2X background) |

target: T3, GP1 1-501aa; test: as above

| Binder | binding result |
| --- | --- |
| B3 | no binding (tested: Cut off was 2X background) |

Reference: patent US20180071389A1 (HER MAJESTY THE QUEEN IN THE RIGHT OF CANADA AS REPRESENTED …, published 2018)
